# Laboratory results published in patent US20230406885A1, “CYCLIC PEPTIDES FOR TRAPPING INTERLEUKIN-1 BETA” (MERCK SHARP & DOHME LLC, priority 2022, published 2023).
# *1 amine or outer side, *2 acyl side, *3 side chain or, on linkers, in order; H or OH if unused. [ ]: non-standard residue; d: D form. TyrEtNAc = L-tyrosine O-ethyl acetamide, (S)-3-(4-(2-acetamidoethoxy)phenyl)-2-aminopropanoic acid, CC(=O)NCCOc1ccc(C[C@H](N[*:1])C(=O)[*:2])cc1; 3Pal4Ph4CO2H = (S)-4-(5-(2-amino-2-carboxyethyl)pyridin-2-yl)benzoic acid, O=C([C@H](Cc1ccc(-c2ccc(C(=O)[*:3])cc2)nc1)N[*:1])[*:2]; TyrEtMor = (S)-2-amino-3-(4-(2-morpholinoethoxy)phenyl)propanoic acid, O=C([C@H](Cc1ccc(OCCN2CCOCC2)cc1)N[*:1])[*:2]; Pro(trans-4-NH2) = O=C([C@@H]1C[C@@H](N[*:3])CN1[*:1])[*:2]; Bip(4'-COOH) = N[C@@H](Cc1ccc(-c2ccc(C(=O)O)cc2)cc1)C(=O)O; 1Nal(3S-Me) = C[C@@H](c1cccc2ccccc12)[C@H](N)C(=O)O; Ala(indazol-1-yl) = N[C@@H](Cn1ncc2ccccc21)C(=O)O; Ala(indolin-1-yl) = N[C@@H](CN1CCc2ccccc21)C(=O)O; Phe(4-COOH) = N[C@@H](Cc1ccc(C(=O)O)cc1)C(=O)O; h3Pal(5-CN) = N#Cc1cncc(CC[C@H](N)C(=O)O)c1; 1Nal = N[C@@H](Cc1cccc2ccccc12)C(=O)O; hTyr = N[C@@H](CCc1ccc(O)cc1)C(=O)O; dNMeA = CN[C@H](C)C(=O)O; Dab = NCC[C@H](N)C(=O)O; Dap = NC[C@H](N)C(=O)O; Aib = CC(C)(N)C(=O)O
# B1: SEQ ID NO: 16 (peptide)
# peptide: cyclo([Bip(4'-COOH)]W[Phe(4-COOH)]G[Pro(trans-4-NH2)][1Nal(3S-Me)]D[dNMeA]G[Bip(4'-COOH)][1Nal][Dab][Aib][hTyr])
# SMILES: C[C@@H]1C(=O)NCC(=O)N[C@@H](Cc2ccc(-c3ccc(C(=O)O)cc3)cc2)C(=O)N[C@@H](Cc2cccc3ccccc23)C(=O)N[C@@H](CCN)C(=O)NC(C)(C)C(=O)N[C@@H](CCc2ccc(O)cc2)C(=O)N[C@@H](Cc2ccc(-c3ccc(C(=O)O)cc3)cc2)C(=O)N[C@@H](Cc2c[nH]c3ccccc23)C(=O)N[C@@H](Cc2ccc(C(=O)O)cc2)C(=O)NCC(=O)N2C[C@H](N)C[C@H]2C(=O)N[C@@H]([C@@H](C)c2cccc3ccccc23)C(=O)N[C@@H](CC(=O)O)C(=O)N1C
# B2: SEQ ID NO: 15 (peptide)
# peptide: cyclo([Bip(4'-COOH)]W[Phe(4-COOH)]G[Pro(trans-4-NH2)][1Nal(3S-Me)]D[dNMeA]G[Bip(4'-COOH)][1Nal][Dab][Aib]G)
# SMILES: C[C@@H]1C(=O)NCC(=O)N[C@@H](Cc2ccc(-c3ccc(C(=O)O)cc3)cc2)C(=O)N[C@@H](Cc2cccc3ccccc23)C(=O)N[C@@H](CCN)C(=O)NC(C)(C)C(=O)NCC(=O)N[C@@H](Cc2ccc(-c3ccc(C(=O)O)cc3)cc2)C(=O)N[C@@H](Cc2c[nH]c3ccccc23)C(=O)N[C@@H](Cc2ccc(C(=O)O)cc2)C(=O)NCC(=O)N2C[C@H](N)C[C@H]2C(=O)N[C@@H]([C@@H](C)c2cccc3ccccc23)C(=O)N[C@@H](CC(=O)O)C(=O)N1C
# B3: SEQ ID NO: 120 (peptide)
# peptide: cyclo([TyrEtNAc]W[Phe(4-COOH)]G[Pro(trans-4-NH2)][1Nal(3S-Me)]D[dNMeA]G[Bip(4'-COOH)]W[Dap][dA][TyrEtMor])
# SMILES: CC(=O)NCCOc1ccc(C[C@@H]2NC(=O)[C@H](Cc3ccc(OCCN4CCOCC4)cc3)NC(=O)[C@@H](C)NC(=O)[C@H](CN)NC(=O)[C@H](Cc3c[nH]c4ccccc34)NC(=O)[C@H](Cc3ccc(-c4ccc(C(=O)O)cc4)cc3)NC(=O)CNC(=O)[C@@H](C)N(C)C(=O)[C@H](CC(=O)O)NC(=O)[C@H]([C@@H](C)c3cccc4ccccc34)NC(=O)[C@@H]3C[C@@H](N)CN3C(=O)CNC(=O)[C@H](Cc3ccc(C(=O)O)cc3)NC(=O)[C@H](Cc3c[nH]c4ccccc34)NC2=O)cc1
# B4: SEQ ID NO: 119 (peptide)
# peptide: cyclo([TyrEtNAc]W[Phe(4-COOH)]G[Pro(trans-4-NH2)][1Nal(3S-Me)]D[dNMeA]G[Bip(4'-COOH)]W[Dap][dA][hTyr])
# SMILES: CC(=O)NCCOc1ccc(C[C@@H]2NC(=O)[C@H](CCc3ccc(O)cc3)NC(=O)[C@@H](C)NC(=O)[C@H](CN)NC(=O)[C@H](Cc3c[nH]c4ccccc34)NC(=O)[C@H](Cc3ccc(-c4ccc(C(=O)O)cc4)cc3)NC(=O)CNC(=O)[C@@H](C)N(C)C(=O)[C@H](CC(=O)O)NC(=O)[C@H]([C@@H](C)c3cccc4ccccc34)NC(=O)[C@@H]3C[C@@H](N)CN3C(=O)CNC(=O)[C@H](Cc3ccc(C(=O)O)cc3)NC(=O)[C@H](Cc3c[nH]c4ccccc34)NC2=O)cc1
# B5: SEQ ID NO: 13 (peptide)
# peptide: cyclo([Bip(4'-COOH)]W[Phe(4-COOH)]G[Pro(trans-4-NH2)][1Nal(3S-Me)]D[dNMeA]G[Bip(4'-COOH)][Ala(indazol-1-yl)][Dap][dA][hTyr])
# SMILES: C[C@@H]1C(=O)NCC(=O)N[C@@H](Cc2ccc(-c3ccc(C(=O)O)cc3)cc2)C(=O)N[C@@H](Cn2ncc3ccccc32)C(=O)N[C@@H](CN)C(=O)N[C@H](C)C(=O)N[C@@H](CCc2ccc(O)cc2)C(=O)N[C@@H](Cc2ccc(-c3ccc(C(=O)O)cc3)cc2)C(=O)N[C@@H](Cc2c[nH]c3ccccc23)C(=O)N[C@@H](Cc2ccc(C(=O)O)cc2)C(=O)NCC(=O)N2C[C@H](N)C[C@H]2C(=O)N[C@@H]([C@@H](C)c2cccc3ccccc23)C(=O)N[C@@H](CC(=O)O)C(=O)N1C
# B6: SEQ ID NO: 12 (peptide)
# peptide: cyclo([Bip(4'-COOH)]W[Phe(4-COOH)]G[Pro(trans-4-NH2)][1Nal(3S-Me)]D[dNMeA]G[3Pal4Ph4CO2H]W[Dap][dA][hTyr])
# SMILES: C[C@@H]1C(=O)NCC(=O)N[C@@H](Cc2ccc(-c3ccc(C(=O)O)cc3)nc2)C(=O)N[C@@H](Cc2c[nH]c3ccccc23)C(=O)N[C@@H](CN)C(=O)N[C@H](C)C(=O)N[C@@H](CCc2ccc(O)cc2)C(=O)N[C@@H](Cc2ccc(-c3ccc(C(=O)O)cc3)cc2)C(=O)N[C@@H](Cc2c[nH]c3ccccc23)C(=O)N[C@@H](Cc2ccc(C(=O)O)cc2)C(=O)NCC(=O)N2C[C@H](N)C[C@H]2C(=O)N[C@@H]([C@@H](C)c2cccc3ccccc23)C(=O)N[C@@H](CC(=O)O)C(=O)N1C
# B7: SEQ ID NO: 14 (peptide)
# peptide: cyclo([Bip(4'-COOH)]W[Phe(4-COOH)]G[Pro(trans-4-NH2)][1Nal(3S-Me)]D[dNMeA]G[Bip(4'-COOH)][Ala(indolin-1-yl)][Dap][dA][hTyr])
# SMILES: C[C@@H]1C(=O)NCC(=O)N[C@@H](Cc2ccc(-c3ccc(C(=O)O)cc3)cc2)C(=O)N[C@@H](CN2CCc3ccccc32)C(=O)N[C@@H](CN)C(=O)N[C@H](C)C(=O)N[C@@H](CCc2ccc(O)cc2)C(=O)N[C@@H](Cc2ccc(-c3ccc(C(=O)O)cc3)cc2)C(=O)N[C@@H](Cc2c[nH]c3ccccc23)C(=O)N[C@@H](Cc2ccc(C(=O)O)cc2)C(=O)NCC(=O)N2C[C@H](N)C[C@H]2C(=O)N[C@@H]([C@@H](C)c2cccc3ccccc23)C(=O)N[C@@H](CC(=O)O)C(=O)N1C
# B8: SEQ ID NO: 17 (peptide)
# peptide: cyclo([Bip(4'-COOH)]W[Phe(4-COOH)]G[Pro(trans-4-NH2)][1Nal(3S-Me)]D[dNMeA]G[Bip(4'-COOH)][1Nal][Dap][Aib]G)
# SMILES: C[C@@H]1C(=O)NCC(=O)N[C@@H](Cc2ccc(-c3ccc(C(=O)O)cc3)cc2)C(=O)N[C@@H](Cc2cccc3ccccc23)C(=O)N[C@@H](CN)C(=O)NC(C)(C)C(=O)NCC(=O)N[C@@H](Cc2ccc(-c3ccc(C(=O)O)cc3)cc2)C(=O)N[C@@H](Cc2c[nH]c3ccccc23)C(=O)N[C@@H](Cc2ccc(C(=O)O)cc2)C(=O)NCC(=O)N2C[C@H](N)C[C@H]2C(=O)N[C@@H]([C@@H](C)c2cccc3ccccc23)C(=O)N[C@@H](CC(=O)O)C(=O)N1C
# B9: SEQ ID NO: 18 (peptide)
# peptide: cyclo([Bip(4'-COOH)]W[Phe(4-COOH)]G[Pro(trans-4-NH2)][1Nal(3S-Me)]D[dNMeA]G[Bip(4'-COOH)][1Nal][Dap][Aib][h3Pal(5-CN)])
# SMILES: C[C@@H]1C(=O)NCC(=O)N[C@@H](Cc2ccc(-c3ccc(C(=O)O)cc3)cc2)C(=O)N[C@@H](Cc2cccc3ccccc23)C(=O)N[C@@H](CN)C(=O)NC(C)(C)C(=O)N[C@@H](CCc2cncc(C#N)c2)C(=O)N[C@@H](Cc2ccc(-c3ccc(C(=O)O)cc3)cc2)C(=O)N[C@@H](Cc2c[nH]c3ccccc23)C(=O)N[C@@H](Cc2ccc(C(=O)O)cc2)C(=O)NCC(=O)N2C[C@H](N)C[C@H]2C(=O)N[C@@H]([C@@H](C)c2cccc3ccccc23)C(=O)N[C@@H](CC(=O)O)C(=O)N1C
# Molecular target: Recombinant human IL-1β (BioLegend 579404) (human, UniProt P01584 117-269)
# Assay: cell-based or functional assay
row,Binder,MRC5 IC50 [nM]
1,B1,0.175
2,B2,0.653
3,B3,0.86
4,B4,0.0602
5,B5,0.031
6,B6,0.0551
7,B7,0.0297
8,B8,0.222
9,B9,0.0885
